Experiments:
Test in all cases: two-hybrid library CCmax;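 note: natural log of median RNA to DNA barcode read ratio; higher means stronger binding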
4H2466-AA = molecular target: T1, 4H2466-AA
T1 chain: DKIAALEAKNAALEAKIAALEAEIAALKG

4H249-AA = molecular target: T2, 4H249-AA; conditions: mean of both orientations
T2 chain: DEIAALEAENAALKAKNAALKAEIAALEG

4H2505-AA = molecular target: T3, 4H2505-AA; conditions: mean of both orientations
T3 chain: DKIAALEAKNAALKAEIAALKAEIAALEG

4H2575-AA = molecular target: T4, 4H2575-AA; conditions: mean of both orientations
T4 chain: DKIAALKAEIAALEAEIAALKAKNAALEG

4H2592-AA = molecular target: T5, 4H2592-AA; conditions: mean of both orientations
T5 chain: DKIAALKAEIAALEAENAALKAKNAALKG

4H2617-AA = molecular target: T6, 4H2617-AA; conditions: mean of both orientations
T6 chain: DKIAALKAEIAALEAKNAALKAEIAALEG

4H2642-AA = molecular target: T7, 4H2642-AA; conditions: mean of both orientations
T7 chain: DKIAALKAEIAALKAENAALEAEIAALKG

4H2729-AA = molecular target: T8, 4H2729-AA; conditions: mean of both orientations
T8 chain: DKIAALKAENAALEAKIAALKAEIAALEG

4H2732-AA = molecular target: T9, 4H2732-AA; conditions: mean of both orientations
T9 chain: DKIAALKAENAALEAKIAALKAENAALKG

4H2754-AA = molecular target: T10, 4H2754-AA
T10 chain: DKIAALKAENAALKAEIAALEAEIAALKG

4H2774-AA = molecular target: T11, 4H2774-AA; conditions: mean of both orientations
T11 chain: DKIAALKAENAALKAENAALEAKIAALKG

4H2837-AA = molecular target: T12, 4H2837-AA; conditions: mean of both orientations
T12 chain: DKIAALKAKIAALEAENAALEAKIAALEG

4H2883-AA = molecular target: T13, 4H2883-AA; conditions: mean of both orientations
T13 chain: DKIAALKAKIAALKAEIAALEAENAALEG

4H2931-AA = molecular target: T14, 4H2931-AA; conditions: mean of both orientations
T14 chain: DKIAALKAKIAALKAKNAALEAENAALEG

4H2944-AA = molecular target: T15, 4H2944-AA; conditions: mean of both orientations
T15 chain: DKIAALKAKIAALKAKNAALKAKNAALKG

4H2949-AA = molecular target: T16, 4H2949-AA; conditions: mean of both orientations
T16 chain: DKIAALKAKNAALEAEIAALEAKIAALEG

4H3001-AA = molecular target: T17, 4H3001-AA; conditions: mean of both orientations
T17 chain: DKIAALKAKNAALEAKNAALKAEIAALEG

4H3015-AA = molecular target: T18, 4H3015-AA; conditions: mean of both orientations
T18 chain: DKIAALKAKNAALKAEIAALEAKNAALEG

4H3073-AA = molecular target: T19, 4H3073-AA; conditions: mean of both orientations
T19 chain: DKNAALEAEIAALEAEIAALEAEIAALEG

4H3112-AA = molecular target: T20, 4H3112-AA; conditions: mean of both orientations
T20 chain: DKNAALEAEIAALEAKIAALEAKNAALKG

4H317-AA = molecular target: T21, 4H317-AA; conditions: mean of both orientations
T21 chain: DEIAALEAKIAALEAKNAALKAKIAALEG

4H3343-AA = molecular target: T22, 4H3343-AA; conditions: mean of both orientations
T22 chain: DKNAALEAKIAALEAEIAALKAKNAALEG

4H335-AA = molecular target: T23, 4H335-AA; conditions: mean of both orientations
T23 chain: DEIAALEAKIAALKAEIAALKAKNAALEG

4H342-AA = molecular target: T24, 4H342-AA; conditions: mean of both orientations
T24 chain: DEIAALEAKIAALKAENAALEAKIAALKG

4H3427-AA = molecular target: T25, 4H3427-AA; conditions: mean of both orientations
T25 chain: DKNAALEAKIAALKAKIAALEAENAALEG

4H3438-AA = molecular target: T26, 4H3438-AA; conditions: mean of both orientations
T26 chain: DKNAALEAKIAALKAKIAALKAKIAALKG

4H347-AA = molecular target: T27, 4H347-AA; conditions: mean of both orientations
T27 chain: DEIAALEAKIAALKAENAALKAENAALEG

4H3606-AA = molecular target: T28, 4H3606-AA; conditions: mean of both orientations
T28 chain: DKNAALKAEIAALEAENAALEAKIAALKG

4H3627-AA = molecular target: T29, 4H3627-AA
T29 chain: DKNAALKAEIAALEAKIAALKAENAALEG

4H3655-AA = molecular target: T30, 4H3655-AA; conditions: mean of both orientations
T30 chain: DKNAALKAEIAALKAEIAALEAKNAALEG

4H3844-AA = molecular target: T31, 4H3844-AA; conditions: mean of both orientations
T31 chain: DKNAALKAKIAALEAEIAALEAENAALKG

4H3921-AA = molecular target: T32, 4H3921-AA
T32 chain: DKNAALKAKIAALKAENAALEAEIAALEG

4H406-AA = molecular target: T33, 4H406-AA; conditions: mean of both orientations
T33 chain: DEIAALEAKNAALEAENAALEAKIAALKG

4H429-AA = molecular target: T34, 4H429-AA; conditions: mean of both orientations
T34 chain: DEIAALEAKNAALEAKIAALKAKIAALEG

4H452-AA = molecular target: T35, 4H452-AA; conditions: mean of both orientations
T35 chain: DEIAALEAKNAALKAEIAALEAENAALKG

4H454-AA = molecular target: T36, 4H454-AA; conditions: mean of both orientations
T36 chain: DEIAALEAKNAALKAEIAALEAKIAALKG

4H48-AA = molecular target: T37, 4H48-AA; conditions: mean of both orientations
T37 chain: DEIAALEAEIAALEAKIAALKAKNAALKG

4H56-AA = molecular target: T38, 4H56-AA
T38 chain: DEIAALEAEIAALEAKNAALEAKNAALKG

4H566-AA = molecular target: T39, 4H566-AA; conditions: mean of both orientations
T39 chain: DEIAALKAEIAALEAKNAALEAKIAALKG

4H605-AA = molecular target: T40, 4H605-AA; conditions: mean of both orientations
T40 chain: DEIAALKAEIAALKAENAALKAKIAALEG

4H678-AA = molecular target: T41, 4H678-AA; conditions: mean of both orientations
T41 chain: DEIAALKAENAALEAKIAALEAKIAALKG

4H717-AA = molecular target: T42, 4H717-AA; conditions: mean of both orientations
T42 chain: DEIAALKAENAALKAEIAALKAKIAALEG

4H780-AA = molecular target: T43, 4H780-AA; conditions: mean of both orientations
T43 chain: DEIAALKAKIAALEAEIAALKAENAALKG

4H794-AA = molecular target: T44, 4H794-AA; conditions: mean of both orientations
T44 chain: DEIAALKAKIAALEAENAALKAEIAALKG

4H881-AA = molecular target: T45, 4H881-AA; conditions: mean of both orientations
T45 chain: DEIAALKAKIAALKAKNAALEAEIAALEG

4H906-AA = molecular target: T46, 4H906-AA; conditions: mean of both orientations
T46 chain: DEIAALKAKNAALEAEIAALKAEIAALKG

4H993-AA = molecular target: T47, 4H993-AA; conditions: mean of both orientations
T47 chain: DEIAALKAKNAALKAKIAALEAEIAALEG

4H_APH = molecular target: T48, 4H_APH
T48 chain: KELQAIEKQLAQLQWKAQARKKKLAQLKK

4H_BCR = molecular target: T49, 4H_BCR; conditions: mean of both orientations
T49 chain: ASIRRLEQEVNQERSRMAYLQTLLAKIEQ

4H_GCN4 = molecular target: 4H_GCN4
GCN2_T = conditions: mean of both orientations

Chain of 4H_GCN4 (chain, as listed by the source): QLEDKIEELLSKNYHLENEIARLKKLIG

B1: 4H2466-AA (peptide)
chain: DKIAALEAKNAALEAKIAALEAEIAALKG
interaction score (4H2466-AA): 1.31 | interaction score (4H249-AA): -1.42 | interaction score (4H2505-AA): -0.434 | interaction score (4H2575-AA): -1.2 | interaction score (4H2592-AA): -1.71 | interaction score (4H2617-AA): -1.65 | interaction score (4H2642-AA): -0.362 | interaction score (4H2729-AA): 0.493 | interaction score (4H2732-AA): -1.42 | interaction score (4H2754-AA): -0.538 | interaction score (4H2774-AA): -1.69 | interaction score (4H2837-AA): -1.28 | interaction score (4H2883-AA): -1.56 | interaction score (4H2931-AA): -1.81 | interaction score (4H2944-AA): -1.57 | interaction score (4H2949-AA): -0.713 | interaction score (4H3001-AA): -1.55 | interaction score (4H3015-AA): -1.65 | interaction score (4H3073-AA): -1.43 | interaction score (4H3112-AA): -1.92 | interaction score (4H317-AA): -1.82 | interaction score (4H3343-AA): -1.23 | interaction score (4H335-AA): -1.59 | interaction score (4H342-AA): -0.478 | interaction score (4H3427-AA): -1.39 | interaction score (4H3438-AA): -0.928 | interaction score (4H347-AA): -2.11 | interaction score (4H3606-AA): -1.47 | interaction score (4H3627-AA): -1.86 | interaction score (4H3655-AA): -1.35 | interaction score (4H3844-AA): -1.82 | interaction score (4H3921-AA): -1.23 | interaction score (4H406-AA): -1.25 | interaction score (4H429-AA): -0.101 | interaction score (4H452-AA): -1.37 | interaction score (4H454-AA): 0.993 | interaction score (4H48-AA): -1.11 | interaction score (4H56-AA): -2.04 | interaction score (4H566-AA): -1.51 | interaction score (4H605-AA): -1.38 | interaction score (4H678-AA): -0.158 | interaction score (4H717-AA): -1.06 | interaction score (4H780-AA): -1.2 | interaction score (4H794-AA): -1.43 | interaction score (4H881-AA): -2.04 | interaction score (4H906-AA): -1.22 | interaction score (4H993-AA): 0.55 | interaction score (4H_APH): -0.895 | interaction score (4H_BCR): -2.46 | interaction score (4H_GCN4): -1.67 | interaction score (GCN2_T): -1
